This note sets out measurements from IntAct's records for PubMed 20133654.

B1: Obscurin-like protein 1 (Homo sapiens), O75147 (parent)
chain: MKASSGDQGSPPCFLRFPRPVRVVSGAEAELKCVVLGEPPPVVVWEKGGQQLAASERLSFPADGAEHGLLLTAALPTDAGVYVCRARNAAGEAYAAAAVTVLEPPASDPELQPAERPLPSPGSGEGAPVFLTGPRSQWVLRGAEVVLTCRAGGLPEPTLYWEKDGMALDEVWDSSHFALQPGRAEDGPGASLALRILAARLPDSGVYVCHARNAHGHAQAGALLQVHQPPESPPADPDEAPAPVVEPLKCAPKTFWVNEGKHAKFRCYVMGKPEPEIEWHWEGRPLLPDRRRLMYRDRDGGFVLKVLYCQAKDRGLYVCAARNSAGQTLSAVQLHVKEPRLRFTRPLQDVEGREHGIAVLECKVPNSRIPTAWFREDQRLLPCRKYEQIEEGTVRRLIIHRLKADDDGIYLCEMRGRVRTVANVTVKGPILKRLPRKLDVLEGENAVLLVETLEAGVEGRWSRDGEELPVICQSSSGHMHALVLPGVTREDAGEVTFSLGNSRTTTLLRVKCVKHSPPGPPILAEMFKGHKNTVLLTWKPPEPAPETPFIYRLERQEVGSEDWIQCFSIEKAGAVEVPGDCVPSEGDYRFRICTVSGHGRSPHVVFHGSAHLVPTARLVAGLEDVQVYDGEDAVFSLDLSTIIQGTWFLNGEELKSNEPEGQVEPGALRYRIEQKGLQHRLILHAVKHQDSGALVGFSCPGVQDSAALTIQESPVHILSPQDRVSLTFTTSERVVLTCELSRVDFPATWYKDGQKVEESELLVVKMDGRKHRLILPEAKVQDSGEFECRTEGVSAFFGVTVQDPPVHIVDPREHVFVHAITSECVMLACEVDREDAPVRWYKDGQEVEESDFVVLENEGPHRRLVLPATQPSDGGEFQCVAGDECAYFTVTITDVSSWIVYPSGKVYVAAVRLERVVLTCELCRPWAEVRWTKDGEEVVESPALLLQKEDTVRRLVLPAVQLEDSGEYLCEIDDESASFTVTVTEPPVRIIYPRDEVTLIAVTLECVVLMCELSREDAPVRWYKDGLEVEESEALVLERDGPRCRLVLPAAQPEDGGEFVCDAGDDSAFFTVTVTAPPERIVHPAARSLDLHFGAPGRVELRCEVAPAGSQVRWYKDGLEVEASDALQLGAEGPTRTLTLPHAQPEDAGEYVCETRHEAITFNVILAEPPVQFLALETTPSPLCVAPGEPVVLSCELSRAGAPVVWSHNGRPVQEGEGLELHAEGPRRVLCIQAAGPAHAGLYTCQSGAAPGAPSLSFTVQVAEPPVRVVAPEAAQTRVRSTPGGDLELVVHLSGPGGPVRWYKDGERLASQGRVQLEQAGARQVLRVQGARSGDAGEYLCDAPQDSRIFLVSVEEPLLVKLVSELTPLTVHEGDDATFRCEVSPPDADVTWLRNGAVVTPGPQVEMAQNGSSRILTLRGCQLGDAGTVTLRAGSTATSARLHVRETELLFLRRLQDVRAEEGQDVCLEVETGRVGAAGAVRWVRGGQPLPHDSRLSMAQDGHIHRLFIHGVILADQGTYGCESHHDRTLARLSVRPRQLRVLRPLEDVTISEGGSATFQLELSQEGVTGEWARGGVQLYPGPKCHIHSDGHRHRLVLNGLGLADSGCVSFTADSLRCAARLIVREVPVTIVRGPHDLEVTEGDTATFECELSQALADVTWEKDGNALTPSPRLRLQALGTRRLLQLRRCGPSDAGTYSCAVGTARAGPVRLTVRERTVAVLSELRSVSAREGDGATFECTVSEVETTGRWELGGRPLRPGARVRIRQEGKKHILVLSELRAEDAGEVRFQAGPAQSLALLEVEALPLQMCRHPPREKTVLVGRRAVLEVTVSRSGGHVCWLREGAELCPGDKYEMRSHGPTHSLVIHDVRPEDQGTYCCQAGQDSTHTRLLVEGN

Variants of B1 are the subject of this experiment. Particulars: with titin_human TTN.
Consider F17R, for which the “effect of a mutation on the interaction” value is reported as “decreasing interaction”.
